The nanobody polyreactivity screen of Harvey et al. (2022)

Experiment: yeast display, Sf9 membrane polyspecificity reagent, FACS + sequencing; frameworks hold sequencing errors
Outline: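 Genes from sorted yeast were amplified by colony PCR, read by MiSeq 2 × 250 sequencing and filtered on CDR length. These cells carried a synthetic nanobody library in Saccharomyces cerevisiae BJ5465 and were sorted by FACS into low and high (top ~1%) gates on anti-HA and streptavidin fluorescence. Polyreactivity is labelled according to the gate of origin.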

| Sequence | polyreactivity (PSR sort gate) |
| --- | --- |
| QVQLVESGGGLVQAGGSLRLSSAASGRIFRRNTMGWYRQAPGKERELVAAITYSGGSTYYADSVKGRFTISRDNAKNTVYLQMNSLKPEDTAVYYCAADTGFYYWYDYWGQGTQVTVSS | low polyreactivity |
| QVQLVESGGGLVQAGGSLRLSSAASGRIFSDNVMGWYRQAPGKERELVATITSTGGTYYADSVKGRFTISRDNAKNTVYLQMNSLKPEDTAVYYCNKATLADWWLYPRYNYWGQGTQVTVSS | low polyreactivity |
| QVQLVESGGGLVQAGGSLRLSSAASGRIFSINVMGWYRHAPGKERELVAAISKRGGSTYYADSVKGRFTISRDNAKNTVYLQMNSLKPEDTAVYYCAVDRYSTDRVKTSYGYDYWGQGTQVTVSS | high polyreactivity |
| QVQLVESGGGLVQAGGSLRLSSAASGRIFTINAMGWYRQAPGKERELFASSRSTGGSTYYADSVKGRFTISRDNAKNTFYLQMYSLKPVDTAVYYCDAQYANSIDYRSSYRRDYWGQGTQVTVSS | low polyreactivity |
| QVQLVESGGGLVQAGGSLRLSSAASGRIFYFNARGWYRQAPGKARELVAGISSGGSTDYADSVKGRFTISRDNAKNTVDLQMNSLKPEDTAVYYCATRRSRYSYSGYWGQATQVTVSS | high polyreactivity |
| QVQLVESGGGLVQAGGSLRLSSAASGRIFYRNAMGWYRQAPGKERELVASITSGGRTNYADSVKGRFTFSRDNAKNTVYLHMNSLKPEDTAVYYCAAPPPYSVRTFRFYYWGQGTQVTVSA | high polyreactivity |
| QVQLVESGGGLVQAGGSLRLSSAASGRTFEGYAMGWYRQAPGKERELVAAISGSSGSTYYADSVKGRFTISRDNAKNTVYLQMNSLKPEDTAVYYCNADYDWPGGSDYWGQGTQVTVSS | low polyreactivity |
| QVQLVESGGGLVQAGGSLRLSSAASGRTFFGYAMGCYRQAPGTERELVAVISYSDGSTYYADSVKGRFTISRDNAKNTVYLQMNSLKPEDTAVYYCNARSRVGNSGADYDYWGQGTQETVSS | low polyreactivity |
| QVQLVESGGGLVQAGGSLRLSSAASGRTFGFYAMGCYRQAHGKERELVATISSSGGSTYYADSVKGRFTISRDNAKNTVYLQMNRLTPEDTAVYYCAKVVSVWRSHYIGDYWGQGSQVTVSS | low polyreactivity |
| QVQLVESGGGLVQAGGSLRLSSAASGRTFGKYAMGWYRQAPGKESELVAAITNSGGSTYYADSVKGRFTISRDNAKNTVYLQMISLKPEDTAVYYCNRLGYRGPSILNHMGYWGQGTQVTVSS | high polyreactivity |
| QVQLVESGGGLVQAGGSLRLSSAASGRTFPTYTIGGYRQAPGKERELVAAITRGGSTKYADSVKGRFTISRDNAKNTVYLQMNSLKPEDTAVYYCAAVYRYRHSFAYYRHEMDYWGQGTQVTVSS | low polyreactivity |
| QVQLVESGGGLVQAGGSLRLSSAASGRTFSRYVMGWSRQAPGKERELVATISRSGGSTFYADSVKGRFTISRDNAKNTVYLQMNSLKPEDTAVYYCNKKVQGYQVTYGYWGQGTQVTVSS | high polyreactivity |
| QVQLVESGGGLVQAGGSLRLSSAASGRTFWNNAMGWYRQAPGKERELVAAITSGGRTNYADSVKGRFTISRDNAKNTVYLQMNSLKPEDTAVYYCAAVGYVIYDYWVQGTQVTVSS | low polyreactivity |
| QVQLVESGGGLVQAGGSLRLSSAASGRTFYFYAMGWYRQAPGKERELVADIRGITGSTYYADSVKGRFTISRDNAKNTVYLQMNSLKPEDTAVYYCNAYPYIARAPYEYWGQGTQVTVSS | high polyreactivity |
| QVQLVESGGGLVQAGGSLRLSSAASGRTFYSNAMGWSRQAPGKERELVAAITSTDDSTYYADSVKGRFTISRDNAKNTVYLQMNSLKPEDTAVYYCNTDGLIAIRCVWWVEYDYWGQGTQVTVSS | low polyreactivity |
| QVQLVESGGGLVQAGGSLRLSSAASGRTGVNAMGWDRHAPGKERELGAAINNGDSTYYADSVKGRFTISRDNAKNTVYLQMNSLTPEDTAVYDCAAGLDEGDYWQESDYWGQGTQVTVSS | low polyreactivity |
| QVQLVESGGGLVQAGGSLRLSSAASGRTLVNYAMGCYRQAPGKERELVAAISYSGGSTYYADSVKGRFTISRDYAKNTVYLQMNSLKPEDTAVYYCAAYYYQRYDYWGQGTQVTVSS | high polyreactivity |
| QVQLVESGGGLVQAGGSLRLSSAASGRTYNVYAMGWSRQAPGKERELVAGITRASTNYADSVKGRFTISRDNAKNTVYLLMNSLKPEVTAVYYCAAKIFPKGDYWGQGTQVTVSS | high polyreactivity |
| QVQLVESGGGLVQAGGSLRLSSAASGSIFFEYAMRWSRQAPGNEREWVASINRGGGSTYYADSVKGRFTISRDNAKNTVYLQMNSLKPEDTAVYYCAAQWKYRQSYLDYYWGQGTQVTVSS | low polyreactivity |
| QVQLVESGGGLVQAGGSLRLSSAASGSIFGSYAMGWYRQAPGKERELVAAITSGGSTYADSVKGRFTISRDNAKNTVYLQMNSLKPEDTAVYYCNAKFYQSTSNLVQSEYDYWGQGTQVTVSS | low polyreactivity |
| QVQLVESGGGLVQAGGSLRLSSAASGSIFGVNAMGVYRQAPGKERELVASITGGDSTNYADSVKGRFTISRDNAKNTVYFQMNSLKPEDTAVYYCAKDHYYRYCAAEFVTEYLYGFVYEYDSWGQGTQVTVSS | low polyreactivity |
| QVQLVESGGGLVQAGGSLRLSSAASGSIFQDNAMGWNRQAPGKERELVAAISVSGGSTYYADSVKGRFTISRDNAKNTVYLQMNSLKPEDTAVYYCAARARGYAWTYDYWGQGTQVTVSS | high polyreactivity |

| Sequence | polyreactivity (PSR sort gate) |
| --- | --- |
| QVQLVESGGGLVQAGGSLRLSSAASGSIFRSNAMGWYRQAHGKERELVAAITSGTRTYYADSVKGRFTISRDNAKNTVYLQMNSLKPEDTAVFYCATKGSKYVRGYWGQGTQVTVSS | high polyreactivity |
| QVQLVESGGGLVQAGGSLRLSSAASGSIFRSYTMGWYRQAPGKERELVAAISGRAGSTYYADAVKGRVTISRDNAKNTVYLQMNSLKPEDTAVYYCAVKLGGRSQSYYWGQGTQVTVSS | high polyreactivity |
| QVQLVESGGGLVQAGGSLRLSSAASGSIFSYNVMGWYRQAPGKERELVAAISWNDGSTYYADSVKGRFTISRDNAKNTVYLQMNSLKPEDTAVYYCAAEYGRRWHNELDYWGQGTQVTVSS | low polyreactivity |
| QVQLVESGGGLVQAGGSLRLSSAASGSIFTGSALGWYRQAPGKEREFFARITKRGVSTYYADSVKGRFTISRDKAKNTVYLHMNSLKPEDTAVYYCNADRKFPYGSYETHDYWGQGPQVTVSS | high polyreactivity |
| QVQLVESGGGLVQAGGSLRLSSAASGSIFVPYAMGWYRQAPGKEREFVAAIYSGGGNTYYADSVKGRFTISRDNAKNTVYLQMNSLKPEDTAVYYCAAAYVYSSWSRYDYWGQGTQVTVSS | high polyreactivity |
| QVQLVESGGGLVQAGGSLRLSSAASGSIFWYYAMGWYRQAPGKERELVADITIRGGRTYYADSVKGRFTISRDNAKNTVYFQMNSLKPEDTAVFYCAADWEYWGFGLYDYWGQGTQVTVSS | low polyreactivity |
| QVQLVESGGGLVQAGGSLRLSSAASGSIFYQYAMGWYRQAPGKERQLVAAISRSGGSTYYAESVKGRFTISRDNAKNTVYLQMNSLIPEDTAVYYCATDIYSRWAGYKRSQYDYWGQGTQVTVSS | high polyreactivity |
| QVQLVESGGGLVQAGGSLRLSSAASGSIYYPYAMGWYRQAPGKERELVAAIRNGGSTYYADSVKGRFTISRDNAKNTVYLQMNSLKPEETAVYYCNAVYTGPTYGPHRKENYYWGQGTQVTVSS | high polyreactivity |
| QVQLVESGGGLVQAGGSLRLSSAASGSNFGYKAMGWYRQEPGKEREMVAAISYSGASTYYADSVKGRFTISRDNAKNTVYLQKHSLKPEDTAVYYCAAGWKRFSGRKHYYWGQGTQVTVSS | high polyreactivity |
| QVQLVESGGGLVQAGGSLRLSSAASGSNFSRNTMGWYRQAPGKERELVAAITRGGSTDYADSVKGRFTISRDNAKNTVDLQMNSRKPEDTAVYYCAKKNPGWGKFDYWGQGTQVTVSS | low polyreactivity |
| QVQLVESGGGLVQAGGSLRLSSAASGSTFFSNAMGWYRQAPGKERELVATIRFGGGSTYADSVKGRFTISRDNAKNTVYLQMNSLKPEDTAVYYCAADDSDKRYTRSWYGYWGQGTQVAVSS | low polyreactivity |
| QVQLVESGGGLVQAGGSLRLSSAASGSTFKVNARGWYRQAPGKERELVAGITSSDSTKYADSVKGRFTISRDNAKNTVYLQMNSLKPEDTAVYYSAAETKFSRTSEGDYWGQGTQVTVSS | low polyreactivity |
| QVQLVESGGGLVQAGGSLRLSSAASGSTFNLYAMGWYRQAPGKERELVAAISRRGGSTYYADSVKGRFTISRDNAKNTVYLQMNSLKPEDTAVYYCAAVVVTGQGDKYDYWGQGTQVTVSS | high polyreactivity |
| QVQLVESGGGLVQAGGSLRLSSAASGSTFNSYAMGWYRQAPGKERELVAGITSRGTSTYYADSVKGRFTISRDNAKNTVYLQMNSLKPEDTAVYYCNKYHYWASPMNYWGHGTQVTVSS | high polyreactivity |
| QVQLVESGGGLVQAGGSLRLSSAASGSTFRFNAMGWYRQAPGKERELVATISSGGRTYYADSVKGSFTISRDNAKNTVYLQMNSLKPEDTAVYYCAARTGYFLGRFDYWGQGTQVTVSS | high polyreactivity |
| QVQLVESGGGLVQAGGSLRLSSAASGSTFWYYAMGWYRQAPGKERELVAGITQSGGSTYYADSVKGRFTISRDNAKNTVYLQMNSLKPEDTAVYYCAKDGRVSGDFDYWGQGTQVTVSS | low polyreactivity |
| QVQLVESGGGLVQAGGSLRLSSAASGSTIGGYAMGWYRQAPGKERELVAAITRSGGRTYYADSVKGRFTISRDNSKNTVYLQMNSLKPEDTAVYYCATLVTIGRYDSWGQGTQVTVSS | high polyreactivity |
| QVQLVESGGGLVQAGGSLRLSSAASGSTIGVNARGWYRQAPGKERELVAAISSSGSSTYADSVKGRFTISRDNAKNTVYLQMNSLKPEDTAVYYCNKEWYPYKHNYWGQGTQVTVSS | low polyreactivity |
| QVQLVESGGGLVQAGGSLRLSSAASGSTIRTNAMGWYRQAPGKATELVAAISKSGGRTYYADSVKGRFTISRDNAKNTVYFQMNSLKPEDTAVYYCNVPRDVVPKVRAHDYWGQGTQVTVSS | high polyreactivity |
| QVQLVESGGGLVQAGGSLRLSSAASGSTLTFNAMGWYRQAPGKERELVAAISWSDTDTYYADSVKGRFTISRDNAKNTVYLQMNSLKPEDTAVYYCAATVSAYEMDYWGQGTQVTVSS | low polyreactivity |
| QVQLVESGGGLVQAGGSLRLSSAASGSTSPRNAMGWYRQAPGKERELVAAISSGGRTNYADSVKGRFTISRDNAKNTVYFQMHSLKPEDTAVYYCAAVVHSTYWAQGTQVTVSS | low polyreactivity |
